Data on one molecule can be found in publication PMC3045619 (Nucleic Acids Research, 2010).

Test [1] concerns the target χ subunit of DNA polymerase III of E. coli, wild-type (E. coli, UniProt P28905 1-147). The experiment in a line: cross-linking.
Another test addresses χ K124A (E. coli, UniProt P28905 1-147, K124A). The experiment in a line: cross-linking.

In the case of WMDFDDDIPF [SSB-Carb, peptide containing the last nine amino acids of EcoSSB], the binding result (in test [1]; with χ K124A) was “binds” each time.
